Measured values from patent US20120058906A1 (published 2012).
Blank lines part the entries; values can stand above or below the binder they belong to.

Legend:
[1] = biological target: T1, rHuman ErbB2/Fc Chimera, CF (R&D Systems Cat#1129-ER) (human, UniProt P04626 23-652); assay: ECL (MSD Multi-Spot) titration, antigen spotted on plate; Fab 60 nM; blank spot 1433;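 note: blank spot per well as comparator with Hit at signal to blank ratio of 4 or more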
T1 construct: Bought Fc chimera; also called HER2/neu; human epidermal growth factor 2 receptor; Fc part of the bought chimera not given

[2] = biological target: T2, rHuman IGF-1 sR (IGF-1 sR), CF (R&D Systems Cat#391-GR) (human, UniProt P08069 31-932); assay: as above
T2 construct: Bought soluble receptor; also called insulin-like growth factor-1 soluble receptor; IGF-R1

[3] = biological target: T3, Recombinant Human DLL4 (R&D Systems Cat#1506-D4/CF) (human, UniProt Q9NR61 27-524); assay: as above
T3 construct: Bought recombinant protein; also called delta-like protein 4

[4] = biological target: T4, rHuman CD44/Fc Chimera, CF (R&D Systems Cat#3660-CD) (human, UniProt P16070 21-220); assay: as above
T4 construct: Bought Fc chimera; Fc part of the bought chimera not given

[5] = biological target: T1, rHuman ErbB2/Fc Chimera, CF (R&D …); assay: ECL (MSD Multi-Spot) titration, antigen spotted on plate; Fab 3.75 nM; blank spot 191;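 note: blank spot per well as comparator with Hit at signal to blank ratio of 4 or more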
[6] = biological target: T2, rHuman IGF-1 sR (IGF-1 sR), CF (R&D …); assay: as above
[7] = biological target: T3, Recombinant Human DLL4 (R&D Systems …); assay: as above
[8] = biological target: T4, rHuman CD44/Fc Chimera, CF (R&D Systems …); assay: as above
[9] = biological target: T1, rHuman ErbB2/Fc Chimera, CF (R&D …); assay: ECL (MSD Multi-Spot) titration, antigen spotted on plate; Fab 0.9375 nM; blank spot 153;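 note: blank spot per well as comparator with Hit at signal to blank ratio of 4 or more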
[10] = biological target: T2, rHuman IGF-1 sR (IGF-1 sR), CF (R&D …); assay: as above
[11] = biological target: T3, Recombinant Human DLL4 (R&D Systems …); assay: as above
[12] = biological target: T4, rHuman CD44/Fc Chimera, CF (R&D Systems …); assay: as above
[13] = biological target: T1, rHuman ErbB2/Fc Chimera, CF (R&D …); assay: ECL (MSD Multi-Spot) titration, antigen spotted on plate; Fab 15 nM; blank spot 536;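 note: blank spot per well as comparator with Hit at signal to blank ratio of 4 or more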
[14] = biological target: T2, rHuman IGF-1 sR (IGF-1 sR), CF (R&D …); assay: as above
[15] = biological target: T3, Recombinant Human DLL4 (R&D Systems …); assay: as above
[16] = biological target: T4, rHuman CD44/Fc Chimera, CF (R&D Systems …); assay: as above
[17] = biological target: T1, rHuman ErbB2/Fc Chimera, CF (R&D …); assay: ECL (MSD Multi-Spot) titration, antigen spotted on plate; Fab 0.51 µM; blank spot 1096;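 note: blank spot per well as comparator with Hit at signal to blank ratio of 4 or more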
[18] = biological target: T2, rHuman IGF-1 sR (IGF-1 sR), CF (R&D …); assay: as above
[19] = biological target: T3, Recombinant Human DLL4 (R&D Systems …); assay: as above
[20] = biological target: T4, rHuman CD44/Fc Chimera, CF (R&D Systems …); assay: as above
[21] = biological target: T5, rHuman HGF R/c-MET/Fc Chimera, CF (R&D Systems Cat#358-MT/CF) (human, UniProt P08581 25-932); assay: as above
T5 construct: Bought Fc chimera; also called HGF R/Fc; hepatocyte growth factor receptor; Fc part of the bought chimera not given

[22] = biological target: T1, rHuman ErbB2/Fc Chimera, CF (R&D …); assay: ECL (MSD Multi-Spot) titration, antigen spotted on plate; Fab 0.1275 µM; blank spot 530;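 note: blank spot per well as comparator with Hit at signal to blank ratio of 4 or more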
[23] = biological target: T2, rHuman IGF-1 sR (IGF-1 sR), CF (R&D …); assay: as above
[24] = biological target: T3, Recombinant Human DLL4 (R&D Systems …); assay: as above
[25] = biological target: T4, rHuman CD44/Fc Chimera, CF (R&D Systems …); assay: as above
[26] = biological target: T5, rHuman HGF R/c-MET/Fc Chimera, CF (R&D …); assay: as above
[27] = biological target: T1, rHuman ErbB2/Fc Chimera, CF (R&D …); assay: ECL (MSD Multi-Spot) titration, antigen spotted on plate; Fab 0.03188 µM; blank spot 536;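 note: blank spot per well as comparator with Hit at signal to blank ratio of 4 or more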
[28] = biological target: T2, rHuman IGF-1 sR (IGF-1 sR), CF (R&D …); assay: as above
[29] = biological target: T3, Recombinant Human DLL4 (R&D Systems …); assay: as above
[30] = biological target: T4, rHuman CD44/Fc Chimera, CF (R&D Systems …); assay: as above
[31] = biological target: T5, rHuman HGF R/c-MET/Fc Chimera, CF (R&D …); assay: as above
[32] = biological target: T1, rHuman ErbB2/Fc Chimera, CF (R&D …); assay: ECL (MSD Multi-Spot) titration, antigen spotted on plate; Fab 0.00797 µM; blank spot 364;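 note: blank spot per well as comparator with Hit at signal to blank ratio of 4 or more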
[33] = biological target: T2, rHuman IGF-1 sR (IGF-1 sR), CF (R&D …); assay: as above
[34] = biological target: T3, Recombinant Human DLL4 (R&D Systems …); assay: as above
[35] = biological target: T4, rHuman CD44/Fc Chimera, CF (R&D Systems …); assay: as above
[36] = biological target: T5, rHuman HGF R/c-MET/Fc Chimera, CF (R&D …); assay: as above
[37] = biological target: T2, rHuman IGF-1 sR (IGF-1 sR), CF (R&D …); assay: ECL (MSD Multi-Spot) titration, antigen spotted on plate; Fab 0.096 µM; blank spot 917
[38] = biological target: T2, rHuman IGF-1 sR (IGF-1 sR), CF (R&D …); assay: ECL (MSD Multi-Spot) titration, antigen spotted on plate; Fab 0.0192 µM; blank spot 751
[39] = biological target: T2, rHuman IGF-1 sR (IGF-1 sR), CF (R&D …); assay: ECL (MSD Multi-Spot) titration, antigen spotted on plate; Fab 0.48 µM; blank spot 2945

ECL signal [1]: 2160 | ECL signal [2]: 2670 | ECL signal [3]: 17300 | ECL signal [4]: 2360 | ECL signal [5]: 291 | ECL signal [6]: 314 | ECL signal [7]: 1570 | ECL signal [8]: 307 | ECL signal [9]: 268 | ECL signal [10]: 204 | ECL signal [11]: 453 | ECL signal [12]: 251 | ECL signal [13]: 740 | ECL signal [14]: 859 | ECL signal [15]: 7730 | ECL signal [16]: 748
B1: Fab VH1-3_IGHD4-23*01_IGHJ4*01 & L12_IGKJ1*01 (Fab, V domains shown)
VH: QVQLVQSGAEVKKPGASVKVSCKASGYTFTSYAMHWVRQAPGQRLEWMGWSNAGNGNTKYSQEFQGRVTITRDTSASTAYMELSSLRSEDMAVYYCARDDYGGNSDYFDYWGQGTLVTVSS
VL: not shown

ECL signal [17]: 1530 | ECL signal [18]: 2240 | ECL signal [19]: 5180 | ECL signal [20]: 2010 | ECL signal [21]: 1990 | ECL signal [22]: 857 | ECL signal [23]: 1040 | ECL signal [24]: 2380 | ECL signal [25]: 926 | ECL signal [26]: 853 | ECL signal [27]: 584 | ECL signal [28]: 765 | ECL signal [29]: 1280 | ECL signal [30]: 653 | ECL signal [31]: 693 | ECL signal [32]: 493 | ECL signal [33]: 564 | ECL signal [34]: 872 | ECL signal [35]: 490 | ECL signal [36]: 419
B2: Fab VH4-34_IGHD7-27*01_IGHJ4*01 & L5_IGKJ1*01 (Fab, V domains shown)
VH: QVQLQQWGAGLLKPSETLSLTCAVYGGSFSGYYWSWIRQPPGKGLEWIGEINHSGSTNYNPSLKSRVTISVDTSKNQFSLKLSSVTAADTAVYYCARANWGDYFDYWGQGTLVTVSS
VL: DIQMTQSPSSVSASVGDRVTITCRASQGISSWLAWYQQKPGKAPKLLIYAASSLQSGVPSRFSGSGSGTDFTLTISSLQPEDFATYYCQQANSFPPWTFGQGTKVEIKR
notes: Made as a Fab in E. coli: VH joined to the CH1 of Plasmid A (Flag and His tags), VL joined to the kappa constant region of Plasmid C

ECL signal [37]: 2450 | ECL signal [38]: 1830 | ECL signal [39]: 8930
B3: Fab VH1-46_IGHD6-13*01_IGHJ4*01 & A27_IGKJ1*01 (Fab, V domains shown)
VH: QVQLVQSGAEVKKPGASVKVSCKASGYTFTSYYMHWVRQAPGQGLEWMGIINPSGGSTSYAQKFQGRVTMTRDTSTSTVYMELSSLRSEDTAVYYCAREGYSSSWYDYFDYWGQGTLVTVSS
VL: not shown
notes: as for B2
